{"source": "patent US12576050B2", "about": "“Dosage regime” (priority 2018, dated 2026)", "test": "In vitro mucolysis of patient sputum", "settings": "very thick/purulent sputum, patient already on Pulmozyme", "method": "Patient had very thick/purulent sputum. The sputum from this patient was responsive to 5% cysteamine DPI formulation. Addition of DNAse I (Pulmozyme) at physiological concentration is having no effect, but this patient is already on Pulmozyme and recently had the dose tripled. The patient's sputum responded to in vitro tests with cysteamine (see FIG. 7). The sputum response was conducted in accordance with the general method outlined in EBioMedicine 2 (2015) 1507-1512 “Cysteamine as a Future Intervention in Cystic Fibrosis Against Current and Emerging Pathogens: A Patient-based ex vivo Study Confirming its Antimicrobial and Mucoactive Potential in Sputum”, Graham Devereux et al."}
{"molecule": "DNAse I (Pulmozyme): DNAse I (Pulmozyme) added at physiological concentration to sputum (protein, UniProt P24855 23-282, looked up) Deoxyribonuclease-1: LKIAAFNIQTFGETKMSNATLVSYIVQILSRYDIALVQEVRDSHLTAVGKLLDNLNQDAPDTYHYVVSEPLGRNSYKERYLFVYRPDQVSAVDSYYYDDGCEPCGNDTFNREPAIVRFFSRFTEVREFAIVPLHAAPGDAVAEIDALYDVYLDVQEKWGLEDVMLMGDFNAGCSYVRPSQWSSIRLWTSPTFQWLIPDSADTTATPTHCAYDRIVVAGMLLRGAVVPDSALPFNFQAAYGLSDQLAQAISDHYPVEVMLK", "values": [{"measurement": "Response of patient sputum (mucolysis)", "result": "no effect"}]}
